{"source": "patent US20060034860A1", "about": "(CELLVIR, published 2006)", "binders": {"B1": {"name": "HIV-1 protease, bait PR_v1 (enzyme)", "chain": "not shown"}, "B2": {"name": "HIV-1 Nucleocapsid NCp7, bait NC_v1 (other)", "chain": "MQRGNFRNQRKTVKCFNCGKEGHIAKNCRAPRKKGCWKCGKEGHQMKDCTERQAN"}, "B3": {"name": "HIV-1 reverse transcriptase p66 subunit, bait RT_v1 (enzyme)", "chain": "not shown", "notes": "also called p66 RT; HIV-1 p66 RT"}}, "key": {"[1]": {"molecular_target": "T1, Casein Kinase 2, beta polypeptide (CSNK2B), prey47239, prey fragments (Human, UniProt P67870 2-215)", "T1 construct": "also called hCSNK2B; regulatory beta chain of CK2", "T1 sequence (P67870 2-215 limits assumed)": "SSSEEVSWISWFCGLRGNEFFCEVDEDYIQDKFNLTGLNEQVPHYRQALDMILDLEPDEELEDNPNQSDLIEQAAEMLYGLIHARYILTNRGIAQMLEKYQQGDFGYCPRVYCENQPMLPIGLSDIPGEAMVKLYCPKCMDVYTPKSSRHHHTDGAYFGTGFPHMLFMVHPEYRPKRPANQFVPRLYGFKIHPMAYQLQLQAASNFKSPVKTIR", "test": "yeast two-hybrid screen, bait PR_v1 (pB27), Human CEMC7 Random Primed prey library; table of bait-prey interactions"}, "[2]": {"molecular_target": "T2, Human UBE1 (prey030679), prey fragments (Human, UniProt P22314 2-1058)", "T2 sequence": "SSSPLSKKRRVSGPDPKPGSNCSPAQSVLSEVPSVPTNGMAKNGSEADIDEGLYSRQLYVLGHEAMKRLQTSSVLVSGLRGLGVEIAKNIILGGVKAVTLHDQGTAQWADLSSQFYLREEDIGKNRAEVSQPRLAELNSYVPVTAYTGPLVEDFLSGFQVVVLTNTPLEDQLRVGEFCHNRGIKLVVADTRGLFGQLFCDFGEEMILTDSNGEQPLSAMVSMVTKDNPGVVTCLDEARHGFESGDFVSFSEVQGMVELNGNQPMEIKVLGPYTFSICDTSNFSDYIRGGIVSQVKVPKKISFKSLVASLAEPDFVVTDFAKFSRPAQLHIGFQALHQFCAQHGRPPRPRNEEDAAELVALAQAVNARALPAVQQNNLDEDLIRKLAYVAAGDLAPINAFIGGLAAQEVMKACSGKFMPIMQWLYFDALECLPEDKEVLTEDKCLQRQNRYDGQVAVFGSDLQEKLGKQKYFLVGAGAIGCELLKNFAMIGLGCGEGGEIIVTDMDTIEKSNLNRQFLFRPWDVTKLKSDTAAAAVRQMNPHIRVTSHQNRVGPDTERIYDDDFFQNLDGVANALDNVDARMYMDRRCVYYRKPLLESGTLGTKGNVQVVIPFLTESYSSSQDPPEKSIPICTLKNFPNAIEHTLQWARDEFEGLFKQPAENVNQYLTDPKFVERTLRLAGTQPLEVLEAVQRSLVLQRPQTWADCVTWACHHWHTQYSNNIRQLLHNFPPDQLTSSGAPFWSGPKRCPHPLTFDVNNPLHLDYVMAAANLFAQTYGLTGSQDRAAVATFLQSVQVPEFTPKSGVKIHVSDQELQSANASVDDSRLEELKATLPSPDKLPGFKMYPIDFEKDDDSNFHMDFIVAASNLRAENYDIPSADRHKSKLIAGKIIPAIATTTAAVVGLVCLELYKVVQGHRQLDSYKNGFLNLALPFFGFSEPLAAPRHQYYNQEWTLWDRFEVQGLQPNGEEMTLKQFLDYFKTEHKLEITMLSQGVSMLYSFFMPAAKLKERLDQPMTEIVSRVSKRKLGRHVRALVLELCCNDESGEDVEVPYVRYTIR", "test": "yeast two-hybrid screen, bait PR_v1 (pB27), CEMC7 oligo dT primed cDNA prey library; table of bait-prey interactions"}, "[3]": {"molecular_target": "T3, BRCA1 assoc. Prot.1 (BAP1), prey17662 / prey145885, prey fragments (Human, UniProt Q92560 1-729)", "T3 construct": "also called hBAP1; Ubiquitin Hydrolase", "T3 sequence": "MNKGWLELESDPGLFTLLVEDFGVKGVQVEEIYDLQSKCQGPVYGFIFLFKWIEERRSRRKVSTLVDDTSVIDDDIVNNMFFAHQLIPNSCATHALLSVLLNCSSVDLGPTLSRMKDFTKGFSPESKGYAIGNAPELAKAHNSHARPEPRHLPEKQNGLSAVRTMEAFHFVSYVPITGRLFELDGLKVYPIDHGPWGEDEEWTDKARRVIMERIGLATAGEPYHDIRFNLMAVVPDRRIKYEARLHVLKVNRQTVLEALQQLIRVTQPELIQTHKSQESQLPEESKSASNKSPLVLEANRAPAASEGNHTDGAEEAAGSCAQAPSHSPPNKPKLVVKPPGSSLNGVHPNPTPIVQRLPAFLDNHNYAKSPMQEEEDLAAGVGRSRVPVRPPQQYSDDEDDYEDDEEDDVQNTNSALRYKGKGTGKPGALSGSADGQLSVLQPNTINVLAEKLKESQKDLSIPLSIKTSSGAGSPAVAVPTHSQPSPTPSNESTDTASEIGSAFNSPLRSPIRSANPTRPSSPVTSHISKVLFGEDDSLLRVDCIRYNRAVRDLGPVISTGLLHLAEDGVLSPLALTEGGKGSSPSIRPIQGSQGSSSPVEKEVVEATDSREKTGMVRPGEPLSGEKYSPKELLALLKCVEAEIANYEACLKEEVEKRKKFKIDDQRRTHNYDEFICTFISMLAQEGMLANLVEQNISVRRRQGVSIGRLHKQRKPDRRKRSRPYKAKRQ", "test": "yeast two-hybrid screen, bait NC_v1 (pB6), Human CEMC7 Random Primed prey library; table of bait-prey interactions"}, "[4]": {"molecular_target": "T4, Human AKAP1 (prey026778), A kinase anchor protein 1 (Human, UniProt Q92667 30-903)", "T4 construct": "Prey fragments (vector pP6) in the primary screen", "T4 sequence": "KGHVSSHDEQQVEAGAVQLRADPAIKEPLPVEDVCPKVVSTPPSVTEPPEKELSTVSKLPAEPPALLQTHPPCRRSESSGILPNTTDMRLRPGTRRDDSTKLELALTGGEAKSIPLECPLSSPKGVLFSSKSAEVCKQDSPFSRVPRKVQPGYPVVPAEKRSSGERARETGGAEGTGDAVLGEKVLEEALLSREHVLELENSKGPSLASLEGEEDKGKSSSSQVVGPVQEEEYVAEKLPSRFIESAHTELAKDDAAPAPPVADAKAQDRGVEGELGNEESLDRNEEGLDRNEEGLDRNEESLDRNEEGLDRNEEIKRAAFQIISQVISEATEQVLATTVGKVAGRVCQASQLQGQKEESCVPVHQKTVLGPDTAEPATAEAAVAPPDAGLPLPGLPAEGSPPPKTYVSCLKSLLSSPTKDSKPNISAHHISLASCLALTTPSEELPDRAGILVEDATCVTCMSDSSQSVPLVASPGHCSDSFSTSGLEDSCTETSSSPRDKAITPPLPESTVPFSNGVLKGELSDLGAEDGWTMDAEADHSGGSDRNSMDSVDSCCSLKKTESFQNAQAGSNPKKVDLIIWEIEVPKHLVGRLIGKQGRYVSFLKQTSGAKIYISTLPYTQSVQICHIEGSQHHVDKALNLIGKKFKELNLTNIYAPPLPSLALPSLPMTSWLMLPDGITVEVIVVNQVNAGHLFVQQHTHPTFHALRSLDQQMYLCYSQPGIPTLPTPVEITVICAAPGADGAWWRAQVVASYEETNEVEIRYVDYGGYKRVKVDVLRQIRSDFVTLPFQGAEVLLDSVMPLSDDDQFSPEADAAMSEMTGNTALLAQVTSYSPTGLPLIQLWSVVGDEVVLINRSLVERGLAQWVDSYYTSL", "test": "yeast two-hybrid screen, bait RT_v1, CEMC7 random primed cDNA prey library; table of bait-prey interactions"}}, "data": [{"binder": "B1", "values": [{"measurement": "binding result", "setting": "[1]", "value": "binds"}, {"measurement": "binding result", "setting": "[2]", "value": "binds"}]}, {"binder": "B2", "values": [{"measurement": "binding result", "setting": "[3]", "value": "binds"}]}, {"binder": "B3", "values": [{"measurement": "binding result", "setting": "[4]", "value": "binds"}]}]}
